EC50 (read off the curve) data for three substances are collected here from patent US20260242485A1.

Test [1] addresses human CD32B expressed on CHO-K1 cells (human) (UniProt P31994). The experiment in a line: flow cytometry, CHO-K1-hCD32B cells, geometric mean.
For test [2], the target named is human CD16B-NA1 expressed on CHO-K1 cells (human) (UniProt O75015). The test can be described thus: flow cytometry, CHO-K1-hCD16B-NA1 cells, geometric mean.
Sequence of human CD16B-NA1 expressed on CHO-K1 cells (human) (O75015 other isoform, or with tags, fused parts or gaps): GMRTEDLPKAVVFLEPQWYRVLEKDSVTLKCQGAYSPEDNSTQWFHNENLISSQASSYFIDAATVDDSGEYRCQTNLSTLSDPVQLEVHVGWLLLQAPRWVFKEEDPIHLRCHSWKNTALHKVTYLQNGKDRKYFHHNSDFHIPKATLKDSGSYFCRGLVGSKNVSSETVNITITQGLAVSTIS

Sequence of human CD32B expressed on CHO-K1 cells (human) (P31994 43-310): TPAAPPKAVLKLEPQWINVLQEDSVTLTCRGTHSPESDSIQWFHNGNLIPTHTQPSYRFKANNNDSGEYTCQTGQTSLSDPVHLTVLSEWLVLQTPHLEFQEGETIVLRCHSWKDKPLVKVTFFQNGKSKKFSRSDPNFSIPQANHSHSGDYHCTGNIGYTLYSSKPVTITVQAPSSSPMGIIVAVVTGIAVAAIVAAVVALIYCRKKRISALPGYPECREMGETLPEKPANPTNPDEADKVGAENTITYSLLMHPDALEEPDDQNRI

In test [1], Positive control (6G11) (antibody) came in with a 50% effective concentration (EC50 (read off the curve)) of 0.1 nM. In test [2], 3G8-mIgG2aLALAPG (antibody) returned an EC50 (read off the curve) of 0.1 to 1 nM.

Take Positive control (3G8) (antibody): the half-maximal effective concentration (EC50 (read off the curve)) in test [2] amounted to 0.1 nM.
